Among the data in patent CN115028723A (dated 2022) are Kd, koff and kon values, retold here.

For the assay, the target named is T1, 重组人IL-1β (novoprotein, CG93) (human, UniProt P01584 117-269).
T1 construct: The supplier is stated for the immunogen; also called rHuman IL-1β; hIL-1β
Nature of the assay: Biacore SPR, antibody captured on Protein A chip, IL-1β as analyte, 1:1 Langmuir fit.

By Kd is commonly meant the equilibrium constant for the complex coming apart. Higher therefore signals a looser complex. For orientation: koff means the first-order rate constant of dissociation. Usually kon stands for a measure of how fast the partners come together.

B1: 阳性对照抗体CAN (卡纳单抗, Canakinumab) (antibody, human IgG1, kappa, V domains shown)
VH: QVQLVESGGGVVQPGRSLRLSCAASGFTFSVYGMNWVRQAPGKGLEWVAIIWYDGDNQYYADSVKGRFTISRDNSKNTLYLQMNGLRAEDTAVYYCARDLRTGPFDYWGQGTLVTVSS
VL: EIVLTQSPDFQSVTPKEKVTITCRASQSIGSSLHWYQQKPDQSPKLLIKYASQSFSGVPSRFSGSGSGTDFTLTINSLEAEDAAAYYCHQSSSLPFTFGPGTKVDIKR
notes: Signal peptide added for expression is left out; also called Ilaris
With B1, binding was characterised by a dissociation constant (Kd) of 0.0153 nM, the koff is 6.01e-05 s⁻¹ and the on-rate (kon) came to 3.93e+06 M⁻¹ s⁻¹.
